Assay results taken from patent publication US20240173352A1 (published 2024).

How the values were obtained:
Assay in all cases: activation reporter or marker
[1] = biological target: T1, HA-1(H), minor histocompatibility antigen HA-1 variant H; Rho GTPase activating protein 45 (HMHA1) peptide on … (human)
T1 peptide: VLHDDLLEA

[2] = biological target: T2, HA-1(R), allelic variant of HA-1; Rho GTPase activating protein 45 (HMHA1) peptide on HLA-A*02:01 (human)
T2 peptide: VLRDDLLEA

[3] = biological target: T3, mH-Y (MiHA-Y) peptide on H-2Db (mouse)
T3 peptide: KCSRNRQYL

B1: KP7 HA-1H TCR (TCR, V domains shown)
Valpha: KNEVEQSPQNLTAQEGEFITINCSYSVGISALHWLQQHPGGGIVSLFMLSSGKKKHGRLIATINIQEKHSSLHITASHPRDSAVYICAVRSVSGAGSYQLTFGKGTKLSVIP
Vbeta: DTGVSQNPRHKITKRGQNVTFRCDPISEHNRLYWYRQTLGQGPEFLTYFQNEAQLEKSRLLSDRFSAERPKGSFSTLEIQRTEQGDSAMYLCASSIDSFNEQFFGPGTRLTVL
binding result [1]: recognises
binding result [2]: no recognition

B2: H-Y TCRalpha P2A TCRbeta Jb2.3L (TCR, V domains shown)
Valpha: AQSVDQPDAHVTLSEGASLELRCSYSYSAAPYLFWYVQYPGQSLQFLLKYITGDTVVKGTKGFEAEFRKSNSSFNLKKSPAHWSDSAKYFCALEGQDQGGSAKLIFGEGTKLTVSS
Vbeta: EAAVTQSPRNKVAVTGGKVTLSCNQTNNHNNMYWYRQDTGHGLRLIHYSYGAGSTEKGDIPDGYKASRPSQENFSLILELATPSQTSVYFCASGDNSAETLYFGPGTRLLVL
binding result [3]: recognises
